{"source": "paper PMC6305201", "key": {"[1]": {"target": "glycophorin A on red blood cells (human (endogenous in red blood cells)) (UniProt P02724)"}, "[2]": {"target": "glycophorin A on red blood cells (human (endogenous in red blood cells)) (UniProt P02724)", "remark": "listed apart in the source"}}}
{"substance": "recombinant soluble region II (RII) of EBA-175 (domain or fragment)", "values": [{"measurement": "lowest concentration of RII at which RBC clustering was seen (confocal live imaging, picomolar and low nanomolar RII)", "setting": "[1]", "result": 0.3, "unit": "nM"}, {"measurement": "mean cluster area of RBCs under flow (1 dyn/cm^2), RII 1, 10 and 100 nM", "setting": "[2]", "result": 1140, "unit": "µm^2"}]}
